Changes are numbered by the printed parent chain. Names and notes keep the numbering of the source.
B1: anti-CD20 human IgG1 L234S/L235S/G236R (antibody)
heavy: QVQLQQPGAELVKPGASVKMSCKASGYTFTSYNMHWVKQTPGRGLEWIGAIYPGNGDTSYNQKFKGKATLTADKSSSTAYMQLSSLTSEDSAVYYCARSTYYGGDWYFNVWGAGTTVTVSSASTKGPSVFPLAPSSKSTSGGTAALGCLVKDYFPEPVTVSWNSGALTSGVHTFPAVLQSSGLYSLSSVVTVPSSSLGTQTYICNVNHKPSNTKVDKKVEPKSCDKTHTCPPCPAPESSRGPSVFLFPPKPKDTLMISRTPEVTCVVVDVSHEDPEVKFNWYVDGVEVHNAKTKPREEQYNSTYRVVSVLTVLHQDWLNGKEYKCKVSNKALPAPIEKTISKAKGQPREPQVYTLPPSRDELTKNQVSLTCLVKGFYPSDIAVEWESNGQPENNYKTTPPVLDSDGSFFLYSKLTVDKSRWQQGNVFSCSVMHEALHNHYTQKSLSLSPGK
light: QIVLSQSPAILSASPGEKVTMTCRASSSVSYIHWFQQKPGSSPKPWIYATSNLASGVPVRFSGSGSGTSYSLTISRVEAEDAATYYCQQWTSNPPTFGGGTKLEIKRTVAAPSVFIFPPSDEQLKSGTASVVCLLNNFYPREAKVQWKVDNALQSGNSQESVTEQDSKDSTYSLSSTLTLSKADYEKHKVYACEVTHQGLSSPVTKSFNRGEC
notes: also called 1-149; copies: 2 + 2
B2: anti-CD20 human IgG1 L234Q/L235D/G236R (antibody)
heavy: B1 heavy with S238Q, S239D
light: B1 light
notes: also called 2-28; copies: 2 + 2
B3: anti-CD20 human IgG1 L234K/L235T/G236R (antibody)
heavy: B1 heavy with S238K, S239T
light: B1 light
notes: also called 1-90; 2-25; copies: 2 + 2
B4: anti-CD20 human IgG1 L234R/L235K/G236R (antibody)
heavy: B1 heavy with S238R, S239K
light: B1 light
notes: also called 2-40; copies: 2 + 2
B5: anti-CD20 human IgG1 G236R/L328R (antibody)
heavy: not shown
light: B1 light
notes: also called 2-68
B6: anti-CD20 human IgG1 L234T/L235K/G236R (antibody)
heavy: B1 heavy with S238T, S239K
light: B1 light
notes: also called 2-58; copies: 2 + 2
B7: anti-CD20 human IgG1 L234T/L235S/G236R (antibody)
heavy: B1 heavy with S238T
light: B1 light
notes: also called 2-62; copies: 2 + 2
B8: anti-CD20 human IgG1 L234Q/L235A/G236R (antibody)
heavy: not shown
light: B1 light
notes: also called 2-27; copies: 2 + 2
B9: anti-CD20 human IgG1 L234R/L235H/G236R (antibody)
heavy: B1 heavy with S238R, S239H
light: B1 light
notes: also called 2-38; copies: 2 + 2
B10: anti-CD20 human IgG1 L234S/L235G/G236R (antibody)
heavy: B1 heavy with S239G
light: B1 light
notes: also called 1-140; 2-47; copies: 2 + 2
B11: anti-CD20 human IgG1 L234T/L235G/G236R (antibody)
heavy: B1 heavy with S238T, S239G
light: B1 light
notes: copies: 2 + 2
B12: anti-CD20 human IgG1 L234T/L235M/G236R (antibody)
heavy: B1 heavy with S238T, S239M
light: B1 light
notes: also called 1-160; copies: 2 + 2
B13: anti-CD20 human IgG1 L234T/L235E/G236R (antibody)
heavy: B1 heavy with S238T, S239E
light: B1 light
notes: copies: 2 + 2
B14: anti-CD20 human IgG1 L234A/L235S/G236R (antibody)
heavy: not shown
light: B1 light
notes: also called 1-14; 2-4; copies: 2 + 2
B15: anti-CD20 human IgG1 L234A/L235A (LALA) (antibody)
heavy: not shown
light: B1 light
notes: also called 10.16; copies: 2 + 2
B16: anti-CD20 human IgG1 L234T/L235R/G236R (antibody)
heavy: B1 heavy with S238T, S239R
light: B1 light
notes: also called 2-61; copies: 2 + 2
B17: anti-CD20 human IgG1 L234D/L235K/G236R (antibody)
heavy: B1 heavy with S238D, S239K
light: B1 light
notes: also called 1-23; 2-7; copies: 2 + 2
B18: anti-CD20 human IgG1 L234T/G236R (antibody)
heavy: not shown
light: B1 light
notes: also called 2-59; 1-159
B19: anti-CD20 human IgG1 L234Q/L235R/G236R (antibody)
heavy: B1 heavy with S238Q, S239R
light: B1 light
notes: also called 2-32; copies: 2 + 2
B20: anti-CD20 human IgG1 L234T/L235N/G236R (antibody)
heavy: B1 heavy with S238T, S239N
light: B1 light
notes: copies: 2 + 2
B21: anti-CD20 human IgG1 L234T/L235A/G236R (antibody)
heavy: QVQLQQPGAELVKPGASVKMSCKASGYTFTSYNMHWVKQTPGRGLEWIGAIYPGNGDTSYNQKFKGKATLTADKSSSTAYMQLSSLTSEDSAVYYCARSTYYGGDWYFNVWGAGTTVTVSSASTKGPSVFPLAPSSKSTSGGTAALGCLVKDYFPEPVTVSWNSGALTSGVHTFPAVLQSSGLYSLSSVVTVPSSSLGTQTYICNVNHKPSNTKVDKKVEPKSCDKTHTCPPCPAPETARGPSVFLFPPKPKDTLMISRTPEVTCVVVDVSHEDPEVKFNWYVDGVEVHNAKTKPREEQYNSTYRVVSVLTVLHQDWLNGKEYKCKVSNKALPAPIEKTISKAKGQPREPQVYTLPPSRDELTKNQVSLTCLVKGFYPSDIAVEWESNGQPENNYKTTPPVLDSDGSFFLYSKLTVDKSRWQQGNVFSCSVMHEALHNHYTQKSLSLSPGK
light: B1 light
notes: also called 1-152; 2-54; copies: 2 + 2
B22: anti-CD20 human IgG1 L234R/L235I/G236R (antibody)
heavy: B1 heavy with S238R, S239I
light: B1 light
notes: also called 2-39; copies: 2 + 2
B23: anti-CD20 human IgG1 L234R/L235R/G236R (antibody)
heavy: B1 heavy with S238R, S239R
light: B1 light
notes: also called 2-43; copies: 2 + 2
B24: anti-CD20 human IgG1 L234Q/L235T/G236R (antibody)
heavy: B1 heavy with S238Q, S239T
light: B1 light
notes: also called 1-120
B25: anti-CD20 human IgG1 L234K/L235S/G236R (antibody)
heavy: B1 heavy with S238K
light: B1 light
notes: also called 1-89; 2-24; copies: 2 + 2
B26: anti-CD20 human IgG1 L234K/L235R/G236R (antibody)
heavy: B1 heavy with S238K, S239R
light: B1 light
notes: also called 1-88; 2-23; copies: 2 + 2
B27: anti-CD20 human IgG1 L235V/F243L/R292P/Y300L/P396L (antibody)
heavy: B1 heavy with S238L, S239V, R240G, F247L, R296P, Y304L, P400L
light: B1 light
notes: also called 2-72
B28: anti-CD20 human IgG1 L234K/L235V/G236R (antibody)
heavy: B1 heavy with S238K, S239V
light: B1 light
notes: also called 1-91; 2-26; copies: 2 + 2
B29: anti-CD20 human IgG1 L234R/L235D/G236R (antibody)
heavy: B1 heavy with S238R, S239D
light: B1 light
notes: copies: 2 + 2
B30: anti-CD20 human IgG1 L234D/L235S/G236R (antibody)
heavy: B1 heavy with S238D
light: B1 light
notes: also called 1-29; 2-10; copies: 2 + 2

Columns and labels:
[1] = target: T1, Histidine-tagged recombinant human FcγRI (CD64) (human, UniProt P12314 16-288); experiment: SPR, culture supernatant, captured His-FcγRI;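 also: biacore T200 SPR at 25 °C, anti-His capture, supernatants of HEK293 cells expressing IgG1 Fc variants injected 1 min, reference-subtracted response read 55 s after injection start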
T1 construct: bought; also called Sino Biological Cat. No. 12056-H08H
Experimental: Binding analysis was carried out by surface plasmon resonance at 25° C. using a Biacore® T200 instrument with Biacore® T200 control software. The running buffer (HBS-EP+) consisted of 0.01 M HEPES pH 7.4, containing 0.15 M NaCl, 3 mM EDTA, and 0.05% v/v Surfactant P20. The sample compartment was held at 4° C. during analysis.
The cell was activated by treatment with EDC/NHS for 7 min. The antibody was diluted to 5 μg/mL in 10 mM sodium acetate pH 4.5 and injected for 7 min at 5 μL/min. The flow cell was deactivated by injection of 1M ethanolamine for 7 min. This process was repeated in the absence of anti-his antibody on a separate flow cell to generate a reference surface. […] Samples of undiluted culture supernatants from HEK293 cells expressing human IgG1 antibodies comprising variant Fc regions were injected for 1 min at 30 μL/min and allowed to disassociate for 2 min. […] Therefore, regeneration between cycles was not necessary. Responses on the test flow cell (coupled with anti-His antibody) were analysed after subtraction of responses on the control flow cell (sham-coupled). The relative binding response was measured 55 sec after the beginning of sample injection. To account for any possible drift in response due to slow dissociation of the His-tagged FcγRI, the binding response was measured relative to a baseline interpolated between report points located before sample injection and at the end of dissociation.
The whole experiment was repeated three times. Due to the relatively crude nature of the samples (variable refractive index, presence of culture media and other cellular products), some sensorgrams were unsatisfactory and were eliminated from analysis. The mean and standard deviation of binding response was then calculated for each sample.

[2] = target: T2, Histidine-tagged recombinant human FcγRI (CD64) (human, UniProt P12314 16-288, limits assumed); experiment: SPR, His-FcγRI captured; Expt 3;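 also: biacore T200 SPR at 25 °C, Fc-variant antibodies at 100 µg/mL flowed 1 min over anti-His-captured FcγRI, signal taken just before injection end minus a buffer blank cycle; antibody analyte injected at 100 µg/mL for 1 min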
T2 construct: bought

[3] = target: T2, Histidine-tagged recombinant human …; experiment: SPR, His-FcγRI captured; Expt 1;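 also: SPR at 25 °C on anti-His antibody chip capturing FcγRI, Fc-variant antibodies injected at 100 µg/mL for 1 min, signal near end of injection minus buffer blank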
Experimental: Binding analysis was carried out by surface plasmon resonance at 25° C. using a Biacore® T200 instrument with Biacore® T200 control software. The sample compartment was held at 5° C. The running buffer (HBS-EP+) consisted of 0.01 M HEPES pH 7.4, containing 0.15 M NaCl, 3 mM EDTA, and 0.05% v/v Surfactant P20. Methods were run using the manufacturer's standard method wizards as described in the Biacore® T200 Instrument Handbook.
The cell was activated by treatment with EDC/NHS for 7 min. The antibody was diluted to 10 μg/mL in 10 mM sodium acetate pH 5.0 and injected for 7 min at 5 μL/min. The flow cell was deactivated by injection of 1M ethanolamine for 7 min. This process was repeated in the absence of anti-his antibody on a separate flow cell to generate a reference surface. […] Samples of purified antibodies comprising variant Fc regions (1 mg/mL in PBS) were diluted with running buffer to 100 μg/mL and were injected for 1 min at 30 μL/min and allowed to disassociate for 2 min. Between each cycle, the chip was regenerated by injection of 10 mM glycine pH 3.0 for 0.5 min at a flow rate of 30 μL/min and recharged with a fresh injection of FcγRI. At the beginning of each experiment, three blank cycles were run, with buffer alone being injected instead of test sample. The average SPR signal (relative to the reference cell) was measured in a window approximately 8 to 13 seconds before the injection of test sample (baseline) and approximately 3 to 8 seconds before the end of injection (response). The response of the third of the blank (buffer) samples was subtracted from the response of each test sample in order to allow for any dissociation of the bound FcγRI giving a corrected response for each test sample. The whole experiment was repeated three times with the test samples being analysed in different orders each time.

| Binder | Mean binding response [1] [RU] | other results |
| --- | --- | --- |
| B1 | 25.6 | – |
| B2 | 18.9 | – |
| B3 | 15.8 | – |
| B4 | 19.2 | – |
| B5 | – | Corrected response (RU) [2]: 65 RU; Corrected response (RU) [3]: 8.8 RU |
| B6 | 6.7 | – |
| B7 | 25.4 | – |
| B8 | 13.4 | – |
| B9 | 14.3 | – |
| B10 | 11.2 | – |
| B11 | 26.9 | – |
| B12 | 31.6 | – |
| B13 | 24 | – |
| B14 | 32.1 | – |
| B15 | 65 | – |
| B16 | 13.6 | – |
| B17 | 20.9 | – |
| B18 | – | Corrected response (RU) [3]: 156 RU |
| B19 | 20.1 | – |
| B20 | 22.4 | – |
| B21 | 11.8 | – |
| B22 | 10.7 | – |
| B23 | 17.2 | – |
| B24 | – | Corrected response (RU) [2]: 1.4 RU |
| B25 | 16.1 | – |
| B26 | 13.9 | – |
| B27 | – | Corrected response (RU) [2]: 2510 RU |
| B28 | 12.8 | – |
| B29 | 11.1 | – |
| B30 | 26.3 | – |
